Measurements from patent US6835382B2, “Ii peptide therapeutics to enhance antigen presentation” (University of Massachusetts, priority 1996, dated 2004).

T1: murine E^d MHC class II allele (Mus musculus, UniProt P01904+P01915)
T1 sequence (P01904 26-255): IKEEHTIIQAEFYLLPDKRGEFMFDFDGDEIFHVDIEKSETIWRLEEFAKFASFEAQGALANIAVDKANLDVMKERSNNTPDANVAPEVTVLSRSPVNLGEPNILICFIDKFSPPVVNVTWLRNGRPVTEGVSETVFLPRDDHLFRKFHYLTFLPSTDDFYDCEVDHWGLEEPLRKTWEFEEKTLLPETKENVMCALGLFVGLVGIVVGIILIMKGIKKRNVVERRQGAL
T1 sequence (P01915 27-264 limits assumed): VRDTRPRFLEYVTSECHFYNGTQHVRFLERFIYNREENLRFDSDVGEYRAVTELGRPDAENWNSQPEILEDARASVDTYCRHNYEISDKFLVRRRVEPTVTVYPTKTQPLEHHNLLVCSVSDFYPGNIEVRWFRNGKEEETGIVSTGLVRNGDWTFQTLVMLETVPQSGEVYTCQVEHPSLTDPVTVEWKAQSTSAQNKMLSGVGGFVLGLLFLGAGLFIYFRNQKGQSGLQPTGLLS


Key:
HLA-DR1 molecules [1] = test: release of biotin-labeled hMBP(90-102) from HLA-DR1 without unlabeled antigenic peptide (assay I); type: binding, human; conditions: for release of biotin-labeled hMBP(90-102) from HLA-DR1 without second unlabeled antigenic peptide, in words: Table 36 (compounds tested at 64 μM); for Relative Release: Table 36, AE101 series compound 64 μM, fraction of o.d. of positive control (PBS only = 1.0; negative control = 0.0)
HLA-DR1 molecules [2] = test: exchange of biotinylated hMBP(90-102) into antigenic peptide-loaded HLA-DR1 (assay III); type: binding, human; conditions: Table 38; HLA-DR1 preloaded with unlabeled hMBP(90-102) 50 μM; exchange with biotin-labeled hMBP(90-102) 50 μM, 37° C., 1 h; fraction of positive control o.d.; no enhancement = 0.08
HLA-DR1 molecules [3] = biological target: T2, HLA-DR1 molecules (Homo sapiens, UniProt P01903+P01911, A100R/D57E/F55L/F60I/F76Y/I96L/L162R/M171V/P40L/Q125E/R42F/V115G/Y59C); test: binding of biotin-labeled hMBP(90-102) to "empty" HLA-DR1 (assay IV); conditions: Table 39; AE101 series compound 64 μM; biotin-labeled hMBP(90-102) 50 μM, 37° C., 1 h; no enhancement = 1
T2 construct: The HLA-DR alpha gene was truncated after Asn^192 to remove transmembranal and cytoplasmic regions from the protein product; A gene coding for the HLA-DR1 beta chain was truncated after position Lys^198, again to delete the transmembranal region; made in house; host or cells: insect cell line printed as HS / H5 (Invitrogen), co-infected with two baculoviruses; concentrated culture supernatant captured on 12CA5 antibody

[4] = system: murine E^k MHC class II allele; test: simultaneous assay, E^k allele (CH27 APC, TPc9.1 T hybridoma, THMCC82-103 or PGCC81-104); type: cell-based; conditions: Table 1, 0.075 μM THMCC82-103, supernatant 1:2
Procedure: (§1) Examples 1-4 (Tables 1-18) will be briefly considered in order to establish the concept of tolerance discussed above. These examples describe experimental results observed in the so-called “simultaneous” assay. In the simultaneous assay four principle components are cultured together for a 24 hour period. The components of this culture, which are added simultaneously, are: (a) an antigenic peptide characterized by the ability to bind specifically into the antigenic peptide binding groove of an MHC class II molecule, (b) mitomycin C-treated, MHC class II-positive antigen presenting cells (APC) bearing the MHC class II allele required for binding of the specific antigenic peptide, and presentation of the specific antigenic peptide to the antigenic peptide-specific T cell hybridoma, (c) an effector compound of the present invention, and (d) an MHC class II allele-restricted T cell hybridoma specific for the antigenic peptide and the MHC class II allele restricting its presentation. Following incubation of this primary culture, an aliquot of its supernatant is transferred into a second culture well for incubation with an interleukin-dependent lymphoblastoid cell line. The degree of stimulation of that second, indicator cell by the interleukins which had been released from the activated T cell hybridoma in the primary culture is measured by quantitating tritiated thymidine deoxyribose {[^3H]TdR} uptake into the DNA of the HT-2 indicator cells of that second culture.
(§2) In the “simultaneous assay” the four components of the assay are cultured together for a 24 h period. The components of this primary culture, added at the same time or simultaneously, are: (a) the antigenic peptide, (b) mitomycin C-treated, MHC class II-positive antigen presenting cells (APC) with the MHC class II allele required for binding of the specific antigenic peptide and its presentation to the antigenic peptide-specific T cell hybridoma, (c) an AE101 series effector peptide, and (d) MHC class II allele-restricted T cell hybridoma specific for the antigenic peptide and the MHC class II allele restricting its presentation. At the end of the incubation of this primary culture, an aliquot of its supernatant is transferred into a second culture well for incubation with an interleukin-dependent lymphoblastoid cell line. The degree of stimulation of that second, indicator cell by the interleukins which had been released from the activated T cell hybridoma in the primary culture is measured by quantitating tritiated thymidine deoxyribose {[^3H]TdR} uptake into the DNA of the HT-2 indicator cells of that second culture.
(§3) For these various assays, the following antigenic peptides were used: HEL11-25, hen egg lysozyme 11-25, AMKRHGLDNYRGYSL(A^d) (SEQ ID NO:5); HEL46-61, hen egg lysozyme 46-61, NTDGSTDYGILQINSR(Ak) (SEQ ID NO:6); HEL106-116, hen egg lysozyme 106-116, NAWVAWRNRCK (E^d) (SEQ ID NO:7); PGCC81-104, pigeon cytochrome c 81-104, […] (Ek) (SEQ ID NO:8), and THMCC82-103, tobacco hornworm moth cytochrome c 82-103, […] (Ek) (SEQ ID NO:9). AE101 series peptides were obtained from commercial sources. In general, the purity and composition of each peptide was confirmed by HPLC separation and mass spectrometry. The native protein antigens were HEL, hen egg lysozyme, and PGCC, pigeon cytochrome C. They were obtained from commercial sources.
(§4) For the experiments of these Examples, several T cell hybridomas, which are specific for certain antigenic peptides, were used. The TPc9.1 T hybridoma is specific for pigeon cytochrome C 81-104 peptide presented on the murine class II MHC allele E^k. The TPc9.1 hybridoma responds heteroclitically to tobacco hornworm moth cytochrome c 82-103 on E^k. The 3A9 T hybridoma is specific for hen egg lysozyme 46-61 on A^k. The 9.30.B2 hybridoma is specific for hen egg lysozyme 11-25 on A^d, and the G28.C9 hybridoma is specific for hen egg lysozyme 106-116 on E^d. […]

[5] = biological target: T1, murine E^d MHC class II allele; test: simultaneous assay, E^d allele (A20 APC, G28.C9 T hybridoma, HEL106-116; HT-2 [3H]TdR readout); type: cell-based; design: The A20 and CH27 B cell lymphoma lines express H-2^d and H-2^k alleles, respectively; endogenous in cells; host or cells: A20 B cell lymphoma (mitomycin C-treated or paraformaldehyde-fixed); conditions: Table 1, 0.4 μM HEL106-116, supernatant 1:4
Procedure: as §1, §2, §3, §4

[6] = biological target: soluble HLA-DR1 (HLA-DR alpha truncated after Asn192 with a C-terminal nine amino acid HA epitope tail; HLA-DR1 beta truncated after Lys198), made in Baculovirus-infected insect cells (human); test: loading ELISA: empty tethered HLA-DR1 with biotin-hMBP(90-102) 50 uM and AE peptide 64 uM, 1 h 37 C; biotin bound read by avidin-HRP
[7] = biological target: soluble HLA-DR1 (HLA-DR alpha truncated after Asn192 with a C-terminal nine amino acid HA epitope tail; HLA-DR1 beta truncated after Lys198), made in Baculovirus-infected insect cells (human); test: exchange ELISA: tethered HLA-DR1 preloaded with unlabeled hMBP(90-102) 50 uM, washed; AE peptide plus biotin-hMBP(90-102) 50 uM, 1 h 37 C; biotin bound as fraction of positive control (overnight loading)
[8] = biological target: soluble HLA-DR1 (HLA-DR alpha truncated after Asn192 with a C-terminal nine amino acid HA epitope tail; HLA-DR1 beta truncated after Lys198), made in Baculovirus-infected insect cells (human); test: release ELISA: soluble HLA-DR1 tethered by 12CA5 and preloaded with biotin-hMBP(90-102); AE peptide 64 uM, 1 h 37 C, no unlabeled peptide; biotin still bound read by avidin-HRP (1.0 = PBS control, 0.0 = no DR1; low value = released)
[9] = AE peptide 16 μM (second value)

Molecule	Relative Release (HLA-DR1 molecules [1])	Relative Binding (HLA-DR1 molecules [2])	Relative Enhancement (HLA-DR1 molecules [3])	Relative Enhancement (of biotin-hMBP(90-102) binding to empty HLA-DR1) (relative to no AE peptide = 1) [6]	Relative Binding (of biotin-hMBP(90-102) to HLA-DR1) (fraction of positive control o.d.) [7]	Relative Release (fraction of positive control o.d.) [8]	other results
AE401: The N-terminal portion of AE100 (LRMKLPKPP)	0.16	0.45	4.29				release of biotin-labeled hMBP(90-102) from HLA-DR1 without second unlabeled antigenic peptide, in words (HLA-DR1 molecules [1]): retained capacity to release
AE402 (LRMKLPKPPKPV)	0.65	−0.03	0.33				
AE403 (MKLPKPPKPV)	0.64	0.40	0.47				
YRMKLPKSAKPV [AE107]	−0.07	1.04	2.59				Times Baseline Response, E^k [4, 9]: 0.8; Times Baseline Response, E^k ([4]; AE peptide 64 μM (first value)): 1.0; release of hMBP(90-102) from HLA-DR1 (HLA-DR1 molecules [1]; AE peptide at 125 nM, additional experiments): completely release; release of biotin-labeled hMBP(90-102) from HLA-DR1 without second unlabeled antigenic peptide, in words (HLA-DR1 molecules [1]): released; Times Baseline Response, E^d [5, 9]: 4.8; Times Baseline Response, E^d ([5]; AE peptide 64 μM (first value)): 21.7
AE100 (YRMKLPKPPKPVSKMR)	0.37	0.31	3.44				
AE405: comprising residue positions 5 through 12 of AE101 (LPKSAKPV)	0.11	0.57	0.43				release of biotin-labeled hMBP(90-102) from HLA-DR1 without second unlabeled antigenic peptide, in words (HLA-DR1 molecules [1]): sufficient to release antigenic peptide
Ac-LRMKLPKPP-NH2 [AE401]				4.29	0.45	0.16	
Ac-LPKSAKPV-NH2 [AE405]				0.43	0.57	0.11	
YRMKLPKPPKPVSKMR [AE100]				3.44	0.31	0.37	
Ac-LRMKLPKPPKPV-NH2 [AE402]				0.33	-0.03	0.65	
Ac-MKLPKPPKPV-NH2 [AE403]				0.47	0.4	0.64	
YRMKLPKSAKPV [AE107]				2.59	1.04	-0.07	
